Assay results reported in patent US10428140B2, “Anti-EphA4 antibody” (EISAI R&D MANAGEMENT CO., LTD., priority 2015, dated 2019).

T1: human EphB4 (Homo sapiens, UniProt P54760)
T1 construct: a protein of the extracellular region of each human Eph receptor fused with the SEAP protein and the His tag; made in house; host or cells: Expi293F cells
T1 sequence (P54760 16-539 limits assumed): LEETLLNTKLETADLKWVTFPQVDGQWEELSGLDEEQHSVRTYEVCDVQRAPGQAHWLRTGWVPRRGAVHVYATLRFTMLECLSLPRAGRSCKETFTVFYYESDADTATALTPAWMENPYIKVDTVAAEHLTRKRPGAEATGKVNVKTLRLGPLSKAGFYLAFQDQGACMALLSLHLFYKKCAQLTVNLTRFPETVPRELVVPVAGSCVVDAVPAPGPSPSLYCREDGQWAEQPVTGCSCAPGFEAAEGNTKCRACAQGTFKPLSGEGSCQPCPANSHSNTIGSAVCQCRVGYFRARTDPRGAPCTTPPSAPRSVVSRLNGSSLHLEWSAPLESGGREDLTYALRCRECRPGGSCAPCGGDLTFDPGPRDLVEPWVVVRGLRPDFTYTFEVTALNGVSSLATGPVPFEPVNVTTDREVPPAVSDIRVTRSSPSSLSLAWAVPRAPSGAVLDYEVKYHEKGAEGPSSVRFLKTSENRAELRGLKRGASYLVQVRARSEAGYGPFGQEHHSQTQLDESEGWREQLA

T2: human EphB6 (Homo sapiens, UniProt O15197)
T2 construct: a protein of the extracellular region of each human Eph receptor fused with the SEAP protein and the His tag; made in house; host or cells: Expi293F cells
T2 sequence (O15197 32-594 limits assumed): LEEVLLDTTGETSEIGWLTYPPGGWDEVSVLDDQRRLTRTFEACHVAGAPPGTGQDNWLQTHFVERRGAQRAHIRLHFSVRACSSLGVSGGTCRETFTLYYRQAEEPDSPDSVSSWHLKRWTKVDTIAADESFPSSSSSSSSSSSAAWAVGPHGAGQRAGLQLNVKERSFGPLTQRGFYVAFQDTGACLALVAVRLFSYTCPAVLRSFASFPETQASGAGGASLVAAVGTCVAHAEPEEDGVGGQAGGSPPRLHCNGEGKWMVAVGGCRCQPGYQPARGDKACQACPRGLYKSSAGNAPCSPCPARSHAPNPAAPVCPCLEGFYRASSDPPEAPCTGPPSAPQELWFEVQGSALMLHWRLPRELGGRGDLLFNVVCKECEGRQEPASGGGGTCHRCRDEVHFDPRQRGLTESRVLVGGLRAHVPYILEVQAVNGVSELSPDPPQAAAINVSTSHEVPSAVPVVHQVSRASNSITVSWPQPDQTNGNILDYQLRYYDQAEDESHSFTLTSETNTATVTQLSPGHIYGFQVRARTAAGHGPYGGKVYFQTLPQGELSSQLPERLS

T3: human EphA1 (Homo sapiens, UniProt P21709)
T3 construct: a protein of the extracellular region of each human Eph receptor fused with the SEAP protein and the His tag; made in house; host or cells: Expi293F cells (culture supernatant)
T3 sequence (P21709 26-547 limits assumed): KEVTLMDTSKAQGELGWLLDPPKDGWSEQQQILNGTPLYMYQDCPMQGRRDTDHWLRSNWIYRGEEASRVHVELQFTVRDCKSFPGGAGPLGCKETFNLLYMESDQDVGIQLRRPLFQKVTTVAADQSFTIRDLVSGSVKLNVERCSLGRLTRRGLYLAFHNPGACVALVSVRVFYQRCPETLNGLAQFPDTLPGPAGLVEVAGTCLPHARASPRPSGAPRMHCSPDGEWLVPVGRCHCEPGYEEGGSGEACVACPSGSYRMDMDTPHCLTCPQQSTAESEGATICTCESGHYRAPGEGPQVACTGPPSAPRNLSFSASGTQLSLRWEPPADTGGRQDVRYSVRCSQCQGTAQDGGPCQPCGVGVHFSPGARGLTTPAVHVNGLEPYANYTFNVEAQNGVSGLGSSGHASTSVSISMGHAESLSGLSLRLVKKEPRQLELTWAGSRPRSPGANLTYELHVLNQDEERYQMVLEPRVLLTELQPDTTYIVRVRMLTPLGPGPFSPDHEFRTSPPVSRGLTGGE

B1: 132 (antibody, V domains shown)
VH: QIQLVQSGSELKKPGASVKVSCKASGYTFTDYSMHWVRQAPGQGLKWMGWINTETGEPTYAQGFTGRFVFSLDTSVSTAYLQISSLKAEDTAVYYCARIPLYYYGSRYWYFDVWGQGTTVTVSS
VL: EIVMTQSPATLSVSPGERATLSCRASENIYRNLAWYQQKPGQSPRLLIYAATNLADGIPARFSGSGSGTEYTLTISSLQSEDFAVYYCQHFWGTPWTFGQGTKVEIK
modifications: synthetic humanized antibody heavy chain variable region sequence; synthetic humanized antibody light chain variable region sequence
B2: 156 (antibody, V domains shown)
VH: QIQLVQSGSELKKPGASVKVSCKASGYTFTDYSMHWVRQAPGQGLKWMGWINTETGEPTYAQGFTGRFVFSLDTSVSTAYLQISSLKAEDTAVYYCARIPLYYYGSRYWYFDVWGQGTTVTVSS
VL: DIQMTQSPSSLSASVGDRVTITCRASENIYRNLAWYQQKPGKAPQLLLYAATNLADGVPSRFSGSGSGTDYTLTISSLQPEDFATYYCQHFWGTPWTFGQGTKVEIK
modifications: synthetic humanized antibody heavy chain variable region sequence; synthetic humanized antibody light chain variable region sequence
B3: 135 (antibody, V domains shown)
VH: QVQLVQSGSELKKPGASVKVSCKASGYTFTDYSMHWVRQAPGQGLEWMGWINTETGEPTYADDFKGRFVFSLDTSVSTAYLQISSLKAEDTAVYYCARIPLYYYGSRYWYFDVWGQGTTVTVSS
VL: EIVMTQSPATLSVSPGERATLSCRASENIYRNLAWYQQKPGQSPRLLIYAATNLADGIPARFSGSGSGTEYTLTISSLQSEDFAVYYCQHFWGTPWTFGQGTKVEIK
modifications: synthetic humanized antibody heavy chain variable region sequence; synthetic humanized antibody light chain variable region sequence
B4: 77 (antibody, V domains shown)
VH: QVQLVQSGSELKKPGASVKVSCKASGYTFTDYSMHWVRQAPGQGLEWMGWINTETGEPTYADDFKGRFVFSLDTSVSTAYLQISSLKAEDTAVYYCARIPLYYYGSRYWYFDVWGQGTTVTVSS
VL: DIQMTQSPSSLSASVGDRVTITCRASENIYRNLAWYQQKPGKAPKLLVYAATNLADGVPSRFSGSGSGTDYTLTISSLQPEDFATYYCQHFWGTPWTFGQGTKVEIK
modifications: synthetic humanized antibody heavy chain variable region sequence; synthetic humanized antibody light chain variable region sequence
B5: 75 (antibody)
VH: QVQLVQSGSELKKPGASVKVSCKASGYTFTDYSMHWVRQAPGQGLEWMGWINTETGEPTYAQGFTGRFVFSLDTSVSTAYLQISSLKAEDTAVYYCARIPLYYYGSRYWYFDVWGQGTTVTVSS
VL: DIQMTQSPSSLSASVGDRVTITCRASENIYRNLAWYQQKPGKAPKLLVYAATNLADGVPSRFSGSGSGTDYTLTISSLQPEDFATYYCQHFWGTPWTFGQGTKVEIK
chain: ASTKGPSVFPLAPSSKSTSGGTAALGCLVKDYFPEPVTVSWNSGALTSGVHTFPAVLQSSGLYSLSSVVTVPSSSLGTQTYICNVNHKPSNTKVDKRVEPKSCDKTHTCPPCPAPPAAAPSVFLFPPKPKDTLMISRTPEVTCVVVDVSHEDPEVQFNWYVDGVEVHNAKTKPREEQFNSTFRVVSVLTVVHQDWLNGKEYKCKVSNKGLPAPIEKTISKTKGQPREPQVYTLPPSREEMTKNQVSLTCLVKGFYPSDIAVEWESNGQPENNYKTTPPMLDSDGSFFLYSKLTVDKSRWQQGNVFSCSVMHEALHNHYTQKSLSLSPG
modifications: synthetic humanized antibody heavy chain variable region sequence; synthetic humanized antibody light chain variable region sequence; synthetic antibody constant region sequence
B6: 78 (antibody, V domains shown)
VH: QVQLVQSGSELKKPGASVKVSCKASGYTFTDYSMHWVRQAPGQGLKWMGWINTETGEPTYADDFKGRFVFSLDTSVSTAYLQISSLKAEDTAVYYCARIPLYYYGSRYWYFDVWGQGTTVTVSS
VL: DIQMTQSPSSLSASVGDRVTITCRASENIYRNLAWYQQKPGKAPKLLVYAATNLADGVPSRFSGSGSGTDYTLTISSLQPEDFATYYCQHFWGTPWTFGQGTKVEIK
modifications: synthetic humanized antibody heavy chain variable region sequence; synthetic humanized antibody light chain variable region sequence
B7: 76 (antibody, V domains shown)
VH: QVQLVQSGSELKKPGASVKVSCKASGYTFTDYSMHWVRQAPGQGLKWMGWINTETGEPTYAQGFTGRFVFSLDTSVSTAYLQISSLKAEDTAVYYCARIPLYYYGSRYWYFDVWGQGTTVTVSS
VL: DIQMTQSPSSLSASVGDRVTITCRASENIYRNLAWYQQKPGKAPKLLVYAATNLADGVPSRFSGSGSGTDYTLTISSLQPEDFATYYCQHFWGTPWTFGQGTKVEIK
modifications: synthetic humanized antibody heavy chain variable region sequence; synthetic humanized antibody light chain variable region sequence
B8: 67 (antibody, V domains shown)
VH: QIQLVQSGSELKKPGASVKVSCKASGYTFTDYSMHWVRQAPGQGLKWMGWINTETGEPTYAQGFTGRFVFSLDTSVSTAYLQISSLKAEDTAVYYCARIPLYYYGSRYWYFDVWGQGTTVTVSS
VL: DIQMTQSPSSLSASVGDRVTITCRASENIYRNLAWYQQKPGKAPKLLVYAATNLADGVPSRFSGSGSGTDYTLTISSLQPEDFATYYCQHFWGTPWTFGQGTKVEIK
modifications: synthetic humanized antibody heavy chain variable region sequence; synthetic humanized antibody light chain variable region sequence

How the values were obtained:
Assay in all cases: Selectivity ELISA of humanized antibodies for human Eph receptor
Type in all cases: binding
Conditions in all cases: coated protein 1 nM
human EphB4 = target: T1, human EphB4
Outline: (§1)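 His-tagged SEAP fusions of each human Eph receptor extracellular region, from Expi293F supernatants, were captured at 1 nM on anti-His-coated wells. Humanized antibody was bound 1 h at room temperature, then detected with HRP […] IgG. TMB development was acid-stopped and read at 450 nm.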

human EphB6 = target: T2, human EphB6
Outline: as §1

human EphA1 = target: T3, human EphA1
Outline: as §1

Molecule	hEphB4-SEAP-: absorbance at 450 nm, percentage with respect to hEphA4-SEAP-His as 100% (human EphB4)	hEphB6-SEAP-: absorbance at 450 nm, percentage with respect to hEphA4-SEAP-His as 100% (human EphB6)	hEphA1-SEAP-: absorbance at 450 nm, percentage with respect to hEphA4-SEAP-His as 100% (human EphA1)
B1	4.8%	4.7%	4.8%
B2	5.6%	5.7%	5.7%
B3	5.1%	5.3%	5.2%
B4	4.5%	4.5%	4.5%
B5	4.6%	4.7%	4.7%
B6	5.1%	5.2%	6.6%
B7	5.2%	5.2%	5.1%
B8	4.9%	4.7%	4.6%
